This note sets out measurements from patent US20190194324A1 (Johns Hopkins, published 2019).

Experiment [1] deals with T1, Human α-syn PFF (human, UniProt P37840 1-140). The experiment is described as follows: expression cloning screen of 352 transmembrane proteins in SH-SY5Y cells.
In experiment [2] the target is T2, α-syn-biotin PFF (biotin-labelled α-synuclein pre-formed fibrils) (mouse, UniProt O55042 1-140). The experiment is described as follows: alkaline phosphatase binding assay on cultured cortical neurons, WT minus LAG3-/-.
The target of experiment [3] is T2, α-syn-biotin PFF (biotin-labelled …). The experiment is described as follows: cell surface binding assay on cells overexpressing the deletion mutant.
Experiment [4] deals with T1, Human α-syn PFF. The experiment is described as follows: expression cloning screen in SH-SY5Y cells, streptavidin-AP staining.
Experiment [5] addresses α-syn-biotin PFF (biotin-labelled α-synuclein pre-formed fibrils) (mouse, UniProt O55042 1-140). The experiment is described as follows: cell surface binding on LAG3-overexpressing SH-SY5Y cells, Scatchard analysis; 0% or 0.1% Triton X-100 (the legend marks both values only 'TX-100').

B1: APLP1 (NM_005166) expressed in SH-SY5Y cells (Origene GFC-transfection array clone) (receptor)
chain: SLAGGSPGAAEAPGSAQVAGLCGRLTLHRDLRTGRWEPDPQRSRRCLRDPQRVLEYCRQMYPELQIARVEQATQAIPMERWCGGSRSGSCAHPHHQVVPFRCLPGEFVSEALLVPEGCRFLHQERMDQCESSTRRHQEAQEACSSQGLILHGSGMLLPCGSDRFRGVEYVCCPPPGTPDPSGTAVGDPSTRSWPPGSRVEGAEDEEEEESFPQPVDDYFVEPPQAEEEEETVPPPSSHTLAVVGKVTPTPRPTDGVDIYFGMPGEISEHEGFLRAKMDLEERRMRQINEVMREWAMADNQSKNLPKADRQALNEHFQSILQTLEEQVSGERQRLVETHATRVIALINDQRRAALEGFLAALQADPPQAERVLLALRRYLRAEQKEQRHTLRHYQHVAAVDPEKAQQMRFQVHTHLQVIEERVNQSLGLLDQNPHLAQELRPQIQELLHSEHLGPSELEAPAPGGSSEDKGGLQPPDSKDDTPMTLPKGSTEQDAASPEKEKMNPLEQYERKVNASVPRGFPFHSSEIQRDELAPAGTGVSREAVSGLLIMGAGGGSLIVLSMLLLRRKKPYGAISHGVVEVDPMLTLEEQQLRELQRHGYENPTYRFLEERP
notes: whole, on cells; also called amyloid beta (A4) precursor-like protein 1
As to B1, the binding result in the experiment with Human α-syn PFF [1] is “binds”.

B2: mouse LAG3 (receptor)
chain: GPGKELPVVWAQEGAPVHLPCSLKSPNLDPNFLRRGGVIWQHQPDSGQPTPIPALDLHQGMPSPRQPAPGRYTVLSVAPGGLRSGRQPLHPHVQLEERGLQRGDFSLWLRPALRTDAGEYHATVRLPNRALSCSLRLRVGQASMIASPSGVLKLSDWVLLNCSFSRPDRPVSVHWFQGQNRVPVYNSPRHFLAETFLLLPQVSPLDSGTWGCVLTYRDGFNVSITYNLKVLGLEPVAPLTVYAAEGSRVELPCHLPPGVGTPSLLIAKWTPPGGGPELPVAGKSGNFTLHLEAVGLAQAGTYTCSIHLQGQQLNATVTLAVITVTPKSFGLPGSRGKLLCEVTPASGKERFVWRPLNNLSRSCPGPVLEIQEARLLAERWQCQLYEGQRLLGATVYAAESSSGAHSARRISGDLKGGHLVLVLILGALSLFLLVAGAFGFHWWRKQLLLRRFSALEHGIQPFPAQRKIEELERELETEMGQEPEPEPEPQLEPEPRQL
notes: whole, on cells; In the in vivo co-IP the protein came from brain stem lysates of mice; also called LAG3 full-length (FL); neuronal LAG3
A word on the Kd: it is the free concentration of one partner at which half of the binding sites on the other are occupied at equilibrium, for simple one-to-one binding. Higher therefore signals weaker binding. The molecule B2 showed a Kd in experiment [2] of 103 nM.

B3: mouse LAG3 deletion mutant ΔD1 (receptor)
chain: IASPSGVLKLSDWVLLNCSFSRPDRPVSVHWFQGQNRVPVYNSPRHFLAETFLLLPQVSPLDSGTWGCVLTYRDGFNVSITYNLKVLGLEPVAPLTVYAAEGSRVELPCHLPPGVGTPSLLIAKWTPPGGGPELPVAGKSGNFTLHLEAVGLAQAGTYTCSIHLQGQQLNATVTLAVITVTPKSFGLPGSRGKLLCEVTPASGKERFVWRPLNNLSRSCPGPVLEIQEARLLAERWQCQLYEGQRLLGATVYAAESSSGAHSARRISGDLKGGHLVLVLILGALSLFLLVAGAFGFHWWRKQLLLRRFSALEHGIQPFPAQRKIEELERELETEMGQEPEPEPEPQLEPEPRQL
notes: whole, on cells; Expressed in HEK293FT cells; also called D1 domain deletion mutant
As to B3, the binding result in experiment [3] was “no binding”.

B4: LAG3 (NM_002286) expressed in SH-SY5Y cells (Origene GFC-transfection array clone) (receptor)
chain: LQPGAEVPVVWAQEGAPAQLPCSPTIPLQDLSLLRRAGVTWQHQPDSGPPAAAPGHPLAPGPHPAAPSSWGPRPRRYTVLSVGPGGLRSGRLPLQPRVQLDERGRQRGDFSLWLRPARRADAGEYRAAVHLRDRALSCRLRLRLGQASMTASPPGSLRASDWVILNCSFSRPDRPASVHWFRNRGQGRVPVRESPHHHLAESFLFLPQVSPMDSGPWGCILTYRDGFNVSIMYNLTVLGLEPPTPLTVYAGAGSRVGLPCRLPAGVGTRSFLTAKWTPPGGGPDLLVTGDNGDFTLRLEDVSQAQAGTYTCHIHLQEQQLNATVTLAIITVTPKSFGSPGSLGKLLCEVTPVSGQERFVWSSLDTPSQRSFSGPWLEAQEAQLLSQPWQCQLYQGERLLGAAVYFTELSSPGAQRSGRAPGALPAGHLLLFLILGVLSLLLLVTGAFGFHLWRRQWRPRRFSALEQGIHPPQAQSKIEELEQEPEPEPEPEPEPEPEPEPEQL
notes: The clone of the screen is named by NM_002286
As to B4, the binding result in the experiment with Human α-syn PFF [4] was “binds”.

B5: LAG3 overexpressed in transfected cells (SH-SY5Y; HEK293FT) (receptor)
chain: LQPGAEVPVVWAQEGAPAQLPCSPTIPLQDLSLLRRAGVTWQHQPDSGPPAAAPGHPLAPGPHPAAPSSWGPRPRRYTVLSVGPGGLRSGRLPLQPRVQLDERGRQRGDFSLWLRPARRADAGEYRAAVHLRDRALSCRLRLRLGQASMTASPPGSLRASDWVILNCSFSRPDRPASVHWFRNRGQGRVPVRESPHHHLAESFLFLPQVSPMDSGPWGCILTYRDGFNVSIMYNLTVLGLEPPTPLTVYAGAGSRVGLPCRLPAGVGTRSFLTAKWTPPGGGPDLLVTGDNGDFTLRLEDVSQAQAGTYTCHIHLQEQQLNATVTLAIITVTPKSFGSPGSLGKLLCEVTPVSGQERFVWSSLDTPSQRSFSGPWLEAQEAQLLSQPWQCQLYQGERLLGAAVYFTELSSPGAQRSGRAPGALPAGHLLLFLILGVLSLLLLVTGAFGFHLWRRQWRPRRFSALEQGIHPPQAQSKIEELEQEPEPEPEPEPEPEPEPEPEQL
On to B5, for which the affinity in experiment [5], expressed as Kd, was 71 nM.
